Source: US20140274766A1, “METHODS OF USING F-SPONDIN AS A BIOMARKER FOR CARTILAGE DEGENERATIVE CONDITIONS AND BONE DISEASES” (priority 2009, published 2014)

Key:
[1] = tested on: OA cartilage explant cultures; details: cited from earlier work
[2] = tested on: chondrocytes in monolayer culture; assay: F-spondin effects on genes/gene products, preliminary experiments with chondrocytes in monolayer culture; format: cell-based, human; parameters: key to TNFα regulation / IL-1β regulation / AGC1 regulation / PGE2 regulation / MMP-13 regulation / TGF-β regulation / BMP-2 regulation / MMP-1 regulation / IL-8 regulation / IL-6 regulation / COL2A1 regulation: F-spondin-mediated upregulation*; downregulation**
Description: F-spondin induced both catabolic and anabolic gene/gene products in chondrocytes including BMP-2, type II collagen, TGF-β1, COX-2, mPGES and PGE2. To begin to address the question of whether selected F-spondin effects in cartilage are mediated by prostaglandin production, we have begun studies to characterize the effect of PGE2 in cartilage. Addition of PGE2 (1-10 uM) to cartilage explants inhibited type II collagen, aggrecan expression, ^35SO4 incorporation, as well as increased type II collagen degradation as assessed by C12C ELISA (IBEX). […] Relative to normals, NURR1 was overexpressed in OA cartilage (2-5 fold) and synovium (2 fold), confirmed by QPCR. Incubation of OA chondrocytes with PGE2 (1-10 uM) induced NURR1 expression (20-50 fold), as analyzed by QPCR. Since NURR1 binds to the NURR1 cis-acting sequence (NBRE) in the promoter region of a variety of genes, we examined the effect of adenoviral-mediated over-expression of NURR1 in chondrocytes.
For initial experiments, chondrocytes isolated from OA knee joints will be used, building from our previous observations using monolayer cultures of these cells (Attur M G, Dave M, Cipolletta C, Kang P, Goldring M B, Patel I R, et al. Reversal of autocrine and paracrine effects of interleukin 1 (IL-1) in human arthritis by type II IL-1 decoy receptor. Potential for pharmacological intervention. J Biol Chem 2000; 275(51):40307-15). However, because OA chondrocytes endogenously express F-spondin, at least initially, there is a potential for a masking effect between control and F-spondin-transduced cultures. To address this, experiments will also be performed in both “normal” chondrocytes isolated from non-arthritic cartilage (obtained from NDRI, Philadelphia) and immortalized C28I2 chondrocytes, where endogenous F-spondin expression is low and absent, respectively (unpublished data). Using this experimental culture system, we expect similar metabolic responses among chondrocyte sources, however if variation between sources is observed, to F-spondin either with or without IL-1, they will be noted and investigated further. For each group and time point, alginate cultures and conditioned cell culture media supernatants will be analyzed by quantitative PCR, ELISA and biochemical assays for molecular markers associated with cartilage anabolism and catabolism. Based on our preliminary findings with F-spondin and IL-1 treatment of monolayer chondrocytes, we predict that at least some of these molecules will be modulated in alginate cultures.

[3] = tested on: latent TGF-β1 in OA cartilage explants; assay: Activation of latent TGF-β1 in OA cartilage explant cultures (ELISA); format: cell-based, human; details: F-spondin 1 μg/ml, 24 h
Description: FIG. 12: Activation of Latent TGF-β1 by exogenous addition of F-spondin in OA cartilage explant cultures: Human OA cartilage was grown as explant cultures in serum free Ham'F-12 medium. All the conditions were done in triplicate. To the cartilage explants recombinant human F-spondin (1 ug/ml) or IL-1 (1 ng/ml) were added and supernatants were collected after 24 h. Both active and total TGF-β1 was estimated. Addition of F-spondin increased the levels of active TGF-β1 observed in explants cultures without significant increase in total latent TGF-β1 secretion.
The effect of F-spondin on latent TGF-β1 activation in OA cartilage explant cultures was studied by ELISA (R&D systems). Unstimulated OA cartilage explants spontaneously released both latent TGF-β1 (˜11 ng/g cartilage) and active TGF-β1 (200 pg/g cartilage) in culture supernatants (FIG. 12).

B1: F-spondin: 110 kDa, secreted, heparin-binding extracellular matrix glycoprotein; used as recombinant protein (R&D systems) or transfected-cell supernatant (protein, UniProt Q9HCB6 29-807, looked up)
Spondin-1: FSDETLDKVPKSEGYCSRILRAQGTRREGYTEFSLRVEGDPDFYKPGTSYRVTLSAAPPSYFRGFTLIALRENREGDKEEDHAGTFQIIDEEETQFMSNCPVAVTESTPRRRTRIQVFWIAPPAGTGCVILKASIVQKRIIYFQDEGSLTKKLCEQDSTFDGVTDKPILDCCACGTAKYRLTFYGNWSEKTHPKDYPRRANHWSAIIGGSHSKNYVLWEYGGYASEGVKQVAELGSPVKMEEEIRQQSDEVLTVIKAKAQWPAWQPLNVRAAPSAEFSVDRTRHLMSFLTMMGPSPDWNVGLSAEDLCTKECGWVQKVVQDLIPWDAGTDSGVTYESPNKPTIPQEKIRPLTSLDHPQSPFYDPEGGSITQVARVVIERIARKGEQCNIVPDNVDDIVADLAPEEKDEDDTPETCIYSNWSPWSACSSSTCDKGKRMRQRMLKAQLDLSVPCPDTQDFQPCMGPGCSDEDGSTCTMSEWITWSPCSISCGMGMRSRERYVKQFPEDGSVCTLPTEETEKCTVNEECSPSSCLMTEWGEWDECSATCGMGMKKRHRMIKMNPADGSMCKAETSQAEKCMMPECHTIPCLLSPWSEWSDCSVTCGKGMRTRQRMLKSLAELGDCNEDLEQVEKCMLPECPIDCELTEWSQWSECNKSCGKGHVIRTRMIQMEPQFGGAPCPETVQRKKCRIRKCLRNPSIQKLRWREARESRRSEQLKEESEGEQFPGCRMRPWTAWSECTKLCGGGIQERYMTVKKRFKSSQFTSCKDKKEIRACNVHPC
[1]
  MMP-13 secretion: increase
  type II collagen degradation: increase
[2]; chondrocytes
  COX-2 gene/gene product: induced
  mPGES gene/gene product: induced
[2]; preliminary, monolayer culture
  AGC1 regulation: AGC1*
  BMP-2 regulation: BMP-2*
  COL2A1 regulation: COL2A1*
  IL-1β regulation: IL-1β**
  IL-6 regulation: IL-6*
  IL-8 regulation: IL-8*
  MMP-1 regulation: MMP-1**
  MMP-13 regulation: MMP-13*
  PGE2 regulation: PGE2*
  TGF-β regulation: TGF-β*
  TNFα regulation: TNFα**
[3]
  increase of active TGF-β1: 225%
  total latent TGF-β1 synthesis: without significant changes
[3]; unstimulated 200 pg/g cartilage
  active TGF-β1 in culture supernatants: 550 pg/g cartilage
